These results are taken from patent US20260001928A1 (CORTERIA PHARMACEUTICALS, priority 2022, published 2026).

The target in experiment [1] is T1, CRF1R receptor (UniProt P34998 24-415, limits assumed).
T1 sequence (looked up): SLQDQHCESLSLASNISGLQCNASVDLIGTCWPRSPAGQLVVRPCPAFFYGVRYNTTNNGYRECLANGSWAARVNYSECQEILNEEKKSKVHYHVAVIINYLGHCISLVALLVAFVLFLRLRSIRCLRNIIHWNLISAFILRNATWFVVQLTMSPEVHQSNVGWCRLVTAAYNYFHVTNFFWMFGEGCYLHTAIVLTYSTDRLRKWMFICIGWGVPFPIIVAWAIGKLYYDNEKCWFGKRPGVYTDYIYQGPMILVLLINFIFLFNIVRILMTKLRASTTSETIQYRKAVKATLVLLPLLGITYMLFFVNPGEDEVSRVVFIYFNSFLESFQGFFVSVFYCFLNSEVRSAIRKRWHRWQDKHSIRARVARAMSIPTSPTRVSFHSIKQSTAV
Briefly: cell-based or functional assay.

Experiment [2] addresses human corticotropin-releasing factor 2a (CRF2a receptor) (human), Q13324. Briefly: cell-based or functional assay.

*1 amine or outer side, *2 acyl side, *3 side chain or, on linkers, in order; H or OH if unused. Where no end group is shown, it is not given here. Side-chain parts run from the residue outwards. [ ]: non-standard residue; d: D form. The star is where a group is joined. C18 diacid = O=C(O)CCCCCCCCCCCCCCCCC(=O)*; C16 diacid = O=C(O)CCCCCCCCCCCCCCC(=O)*; γGlu = O=C(O)[C@H](CCC(=O)[*:2])N[*:1]; NMeI = CC[C@H](C)[C@H](NC)C(=O)O; αMeL = CC(C)C[C@](C)(N)C(=O)O; Pentanoyl = CCCCC(=O)*; AEEA = NCCOCCOCC(=O)O; Aib = CC(C)(N)C(=O)O

Sequence of human corticotropin-releasing factor 2a (CRF2a receptor) (human), Q13324 (Q13324 20-411): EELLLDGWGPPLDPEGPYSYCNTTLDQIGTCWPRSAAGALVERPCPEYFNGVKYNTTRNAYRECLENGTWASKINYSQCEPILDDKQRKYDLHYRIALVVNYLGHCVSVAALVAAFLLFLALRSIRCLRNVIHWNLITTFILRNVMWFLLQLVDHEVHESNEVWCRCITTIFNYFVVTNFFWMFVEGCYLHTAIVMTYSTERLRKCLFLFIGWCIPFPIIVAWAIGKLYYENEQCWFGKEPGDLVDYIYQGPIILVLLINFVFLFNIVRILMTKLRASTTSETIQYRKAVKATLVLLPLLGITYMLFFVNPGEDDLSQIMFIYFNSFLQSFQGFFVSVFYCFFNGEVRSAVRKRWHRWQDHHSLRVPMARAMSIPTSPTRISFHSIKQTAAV

B1: SEQ ID NO 110 (peptide)
peptide: Ac-IVLSLD[dV]PIK[αMeL]K([AEEA-AEEA-γGlu-C18 diacid])KILLEQEKQKKQREQAETN[Aib]QILAQV-NH2
SMILES: CC[C@H](C)[C@H](NC(C)=O)C(=O)N[C@H](C(=O)N[C@@H](CC(C)C)C(=O)N[C@@H](CO)C(=O)N[C@@H](CC(C)C)C(=O)N[C@@H](CC(=O)O)C(=O)N[C@@H](C(=O)N1CCC[C@H]1C(=O)N[C@H](C(=O)N[C@@H](CCCCN)C(=O)N[C@@](C)(CC(C)C)C(=O)N[C@@H](CCCCNC(=O)COCCOCCNC(=O)COCCOCCNC(=O)CC[C@H](NC(=O)CCCCCCCCCCCCCCCCC(=O)O)C(=O)O)C(=O)N[C@@H](CCCCN)C(=O)N[C@H](C(=O)N[C@@H](CC(C)C)C(=O)N[C@@H](CC(C)C)C(=O)N[C@@H](CCC(=O)O)C(=O)N[C@@H](CCC(N)=O)C(=O)N[C@@H](CCC(=O)O)C(=O)N[C@@H](CCCCN)C(=O)N[C@@H](CCC(N)=O)C(=O)N[C@@H](CCCCN)C(=O)N[C@@H](CCCCN)C(=O)N[C@@H](CCC(N)=O)C(=O)N[C@@H](CCCNC(=N)N)C(=O)N[C@@H](CCC(=O)O)C(=O)N[C@@H](CCC(N)=O)C(=O)N[C@@H](C)C(=O)N[C@@H](CCC(=O)O)C(=O)N[C@H](C(=O)N[C@@H](CC(N)=O)C(=O)NC(C)(C)C(=O)N[C@@H](CCC(N)=O)C(=O)N[C@H](C(=O)N[C@@H](CC(C)C)C(=O)N[C@@H](C)C(=O)N[C@@H](CCC(N)=O)C(=O)N[C@H](C(N)=O)C(C)C)[C@@H](C)CC)[C@@H](C)O)[C@@H](C)CC)[C@@H](C)CC)C(C)C)C(C)C
For the molecule B1, in experiment [1], the “Emax (% I)” value was 9%. Moreover, the EC50 [nM] (cAMP) in experiment [2] turned out to be 0.3 nM.

B2: SEQ ID NO 125 (peptide)
peptide: Ac-IVLSLD[dV]PIKLK([γGlu-C18 diacid])KILLEQEKQKKQREQAETN[Aib]QILAQV-NH2
SMILES: CC[C@H](C)[C@H](NC(C)=O)C(=O)N[C@H](C(=O)N[C@@H](CC(C)C)C(=O)N[C@@H](CO)C(=O)N[C@@H](CC(C)C)C(=O)N[C@@H](CC(=O)O)C(=O)N[C@@H](C(=O)N1CCC[C@H]1C(=O)N[C@H](C(=O)N[C@@H](CCCCN)C(=O)N[C@@H](CC(C)C)C(=O)N[C@@H](CCCCNC(=O)CC[C@H](NC(=O)CCCCCCCCCCCCCCCCC(=O)O)C(=O)O)C(=O)N[C@@H](CCCCN)C(=O)N[C@H](C(=O)N[C@@H](CC(C)C)C(=O)N[C@@H](CC(C)C)C(=O)N[C@@H](CCC(=O)O)C(=O)N[C@@H](CCC(N)=O)C(=O)N[C@@H](CCC(=O)O)C(=O)N[C@@H](CCCCN)C(=O)N[C@@H](CCC(N)=O)C(=O)N[C@@H](CCCCN)C(=O)N[C@@H](CCCCN)C(=O)N[C@@H](CCC(N)=O)C(=O)N[C@@H](CCCNC(=N)N)C(=O)N[C@@H](CCC(=O)O)C(=O)N[C@@H](CCC(N)=O)C(=O)N[C@@H](C)C(=O)N[C@@H](CCC(=O)O)C(=O)N[C@H](C(=O)N[C@@H](CC(N)=O)C(=O)NC(C)(C)C(=O)N[C@@H](CCC(N)=O)C(=O)N[C@H](C(=O)N[C@@H](CC(C)C)C(=O)N[C@@H](C)C(=O)N[C@@H](CCC(N)=O)C(=O)N[C@H](C(N)=O)C(C)C)[C@@H](C)CC)[C@@H](C)O)[C@@H](C)CC)[C@@H](C)CC)C(C)C)C(C)C
B2: the “Emax (% I)” value in experiment [1] came out at 18%. Besides, the EC50 [nM] (cAMP) in experiment [2] came to 0.15 nM.

B3: SEQ ID NO 123 (peptide)
peptide: Pentanoyl-VLSLD[dV]PIK[αMeL]K([AEEA-AEEA-γGlu-C18 diacid])KILLEQEKQKKQREQAETN[Aib]QILAQV-NH2
In the case of B3, in experiment [1], the “Emax (% I)” value worked out at 14%. For the same molecule, the EC50 [nM] (cAMP) in experiment [2] turned out to be 0.7 nM.

B4: SEQ ID NO 119 (peptide)
peptide: [NMeI]VLSLD[dV]PIK[αMeL]K([AEEA-AEEA-γGlu-C18 diacid])KILLEQEKQKKQREQAETN[Aib]QILAQV-NH2
modifications: N-terminus assumed
SMILES: CC[C@H](C)[C@H](NC)C(=O)N[C@H](C(=O)N[C@@H](CC(C)C)C(=O)N[C@@H](CO)C(=O)N[C@@H](CC(C)C)C(=O)N[C@@H](CC(=O)O)C(=O)N[C@@H](C(=O)N1CCC[C@H]1C(=O)N[C@H](C(=O)N[C@@H](CCCCN)C(=O)N[C@@](C)(CC(C)C)C(=O)N[C@@H](CCCCNC(=O)COCCOCCNC(=O)COCCOCCNC(=O)CC[C@H](NC(=O)CCCCCCCCCCCCCCCCC(=O)O)C(=O)O)C(=O)N[C@@H](CCCCN)C(=O)N[C@H](C(=O)N[C@@H](CC(C)C)C(=O)N[C@@H](CC(C)C)C(=O)N[C@@H](CCC(=O)O)C(=O)N[C@@H](CCC(N)=O)C(=O)N[C@@H](CCC(=O)O)C(=O)N[C@@H](CCCCN)C(=O)N[C@@H](CCC(N)=O)C(=O)N[C@@H](CCCCN)C(=O)N[C@@H](CCCCN)C(=O)N[C@@H](CCC(N)=O)C(=O)N[C@@H](CCCNC(=N)N)C(=O)N[C@@H](CCC(=O)O)C(=O)N[C@@H](CCC(N)=O)C(=O)N[C@@H](C)C(=O)N[C@@H](CCC(=O)O)C(=O)N[C@H](C(=O)N[C@@H](CC(N)=O)C(=O)NC(C)(C)C(=O)N[C@@H](CCC(N)=O)C(=O)N[C@H](C(=O)N[C@@H](CC(C)C)C(=O)N[C@@H](C)C(=O)N[C@@H](CCC(N)=O)C(=O)N[C@H](C(N)=O)C(C)C)[C@@H](C)CC)[C@@H](C)O)[C@@H](C)CC)[C@@H](C)CC)C(C)C)C(C)C
Regarding B4, the “Emax (% I)” value in experiment [1] was determined as 5%. In experiment [2], this molecule returned an EC50 [nM] (cAMP) of 1.62 nM.

B5: SEQ ID NO 124 (peptide)
peptide: Pentanoyl-VLSLD[dV]PIK[αMeL]K([AEEA-AEEA-γGlu-C18 diacid])KILLEQEKQKKQREQAETNVQILAQV-NH2
For B5, the “Emax (% I)” value in experiment [1] came to 14%. For the same molecule, the EC50 [nM] (cAMP) in experiment [2] stood at 0.38 nM.

B6: SEQ ID NO 67 (peptide)
peptide: [NMeI]VLSLD[dV]PIK[αMeL]K([γGlu-C16 diacid])KILLEQEKQKKQREQAETNVQILAQV-NH2
modifications: N-terminus assumed
SMILES: CC[C@H](C)[C@H](NC)C(=O)N[C@H](C(=O)N[C@@H](CC(C)C)C(=O)N[C@@H](CO)C(=O)N[C@@H](CC(C)C)C(=O)N[C@@H](CC(=O)O)C(=O)N[C@@H](C(=O)N1CCC[C@H]1C(=O)N[C@H](C(=O)N[C@@H](CCCCN)C(=O)N[C@@](C)(CC(C)C)C(=O)N[C@@H](CCCCNC(=O)CC[C@H](NC(=O)CCCCCCCCCCCCCCC(=O)O)C(=O)O)C(=O)N[C@@H](CCCCN)C(=O)N[C@H](C(=O)N[C@@H](CC(C)C)C(=O)N[C@@H](CC(C)C)C(=O)N[C@@H](CCC(=O)O)C(=O)N[C@@H](CCC(N)=O)C(=O)N[C@@H](CCC(=O)O)C(=O)N[C@@H](CCCCN)C(=O)N[C@@H](CCC(N)=O)C(=O)N[C@@H](CCCCN)C(=O)N[C@@H](CCCCN)C(=O)N[C@@H](CCC(N)=O)C(=O)N[C@@H](CCCNC(=N)N)C(=O)N[C@@H](CCC(=O)O)C(=O)N[C@@H](CCC(N)=O)C(=O)N[C@@H](C)C(=O)N[C@@H](CCC(=O)O)C(=O)N[C@H](C(=O)N[C@@H](CC(N)=O)C(=O)N[C@H](C(=O)N[C@@H](CCC(N)=O)C(=O)N[C@H](C(=O)N[C@@H](CC(C)C)C(=O)N[C@@H](C)C(=O)N[C@@H](CCC(N)=O)C(=O)N[C@H](C(N)=O)C(C)C)[C@@H](C)CC)C(C)C)[C@@H](C)O)[C@@H](C)CC)[C@@H](C)CC)C(C)C)C(C)C
As to B6, in experiment [1], the “Emax (% I)” value was 8%. This molecule displayed an EC50 [nM] (cAMP) in experiment [2] of 0.34 nM.

B7: SEQ ID NO 65 (peptide)
peptide: [NMeI]VLSLD[dV]PIK[αMeL]K([γGlu-C16 diacid])KILLEQEKQKKQREQAETN[Aib]QILAQV-NH2
modifications: N-terminus assumed
SMILES: CC[C@H](C)[C@H](NC)C(=O)N[C@H](C(=O)N[C@@H](CC(C)C)C(=O)N[C@@H](CO)C(=O)N[C@@H](CC(C)C)C(=O)N[C@@H](CC(=O)O)C(=O)N[C@@H](C(=O)N1CCC[C@H]1C(=O)N[C@H](C(=O)N[C@@H](CCCCN)C(=O)N[C@@](C)(CC(C)C)C(=O)N[C@@H](CCCCNC(=O)CC[C@H](NC(=O)CCCCCCCCCCCCCCC(=O)O)C(=O)O)C(=O)N[C@@H](CCCCN)C(=O)N[C@H](C(=O)N[C@@H](CC(C)C)C(=O)N[C@@H](CC(C)C)C(=O)N[C@@H](CCC(=O)O)C(=O)N[C@@H](CCC(N)=O)C(=O)N[C@@H](CCC(=O)O)C(=O)N[C@@H](CCCCN)C(=O)N[C@@H](CCC(N)=O)C(=O)N[C@@H](CCCCN)C(=O)N[C@@H](CCCCN)C(=O)N[C@@H](CCC(N)=O)C(=O)N[C@@H](CCCNC(=N)N)C(=O)N[C@@H](CCC(=O)O)C(=O)N[C@@H](CCC(N)=O)C(=O)N[C@@H](C)C(=O)N[C@@H](CCC(=O)O)C(=O)N[C@H](C(=O)N[C@@H](CC(N)=O)C(=O)NC(C)(C)C(=O)N[C@@H](CCC(N)=O)C(=O)N[C@H](C(=O)N[C@@H](CC(C)C)C(=O)N[C@@H](C)C(=O)N[C@@H](CCC(N)=O)C(=O)N[C@H](C(N)=O)C(C)C)[C@@H](C)CC)[C@@H](C)O)[C@@H](C)CC)[C@@H](C)CC)C(C)C)C(C)C
Take B7: the “Emax (% I)” value in experiment [1] is 10%. The molecule further showed an EC50 [nM] (cAMP) in experiment [2] of 0.1 nM.
